This note sets out measurements from the DeepSol protein solubility set.

This data set is described as follows: soluble on expression in E. coli; label from the status in PepcDB or PDB records.
As to “MAVNGKTLIRRFNDYCPEWLAETGDPVGLHIGTLDKPIENVMVTLDVRPEVVAEAIEKQVDLIIAKHPPIFRPVKRLTTDNFQEKMYADLLKHDIAVYAAHTNMDIIDNGLNDWFCELLGIKQTTFLTKTHTVPYKKLAVFVPIDEAPQMREALGLAGAGSQGDYSKTSYSLIGTGRFTPTQGANPTIGEIGQESVVQEAKIEVIFPETKQEQVLAAMLQAHPYEEPAYDVYTIENQSKEFGLGRVGVLDKPVRFSYFVQQVKEAFQLDGLRVIAKDDTKMIQRVAICGGSGEKFYHDALRKQADVYITGDVYYHTAHDMIAEDLPVIDPGHYIEALCKPKLVELMNQWKQENEWAVSIFESEANTNPFRFK”, the “soluble on expression in E. coli” value is reported as “not soluble”.

“GSARDISSTNVTDLTVSPSKIEDGGKTTVKMTFDDKNGKIQNGDMIKVAWPTSGTVKIEGYSKTVPLTVKGEQVGQAVITPDGATITFNDKVEKLSDVSGFAEFEVQGRNLTQTNTSDDKVATITSGNKSTNVTVHKSEAGTSSVFYYKTGDMLPEDTTHVRWFLNINNEKSYVSKDITIKDQIQGGQQLDLSTLNINVTGTHSNYYSGQSAITDFEKAFPGSKITVDNTKNTIDVTIPQGYGSYNSFSINYKTKITNEQQKEFVNNSQAWYQEHGKEEVNGKSFNHTVHNINANAGIEGTVK”: the “soluble on expression in E. coli” value is reported as “soluble”.

Turning to “MAKVIRNRWVYRTDNKWTRYLPRRNDAVKEFDYDKNGASLKHYTEEISEEMRPKQASKLWMAWLYRDTSAEPKWTKKHVENLFGADFKVGRMEVFRNTELINTELWKIKHLIELRPVEFKNGVEPTEDDIFSTSLAPNGQCEVIQGGHVASENDLKLADGKQWTRKELGRDLNKKYHLYQSVYEQNVHTPNNITVVK”, the “soluble on expression in E. coli” value was “not soluble”.

As to “MAHHHHHHMGTLEAQTQGPGSMKISFSEIIHNALKEDLGDKGDITTNSILINEKVNFAINTRENLVVCGIPILEEVFNMNKEHVKYEIHKKDGDITGKNSTLVSGEALAIYLLPIERVILNFIQHASGIASITRQFVDEVSGTKVKIRSTRKTTPGLRMLDKYSVCIGGGESYRDNLCDGVLIKDNHIASCGSITLAIQRLRKNLKNEYIAIECDNISQVEESLSNNVDMILLDNMSISEIKKAVDIVNGKSVLEVSGCVNIRNVRNIALTGVDYISIGCITNSFQNKDIGLDIEYNNNK”, the “soluble on expression in E. coli” value was “soluble”.

“MKEEATTLPQQFIKKYRLLLGEEASDFFSALEQGSVKKGFRWNPLKPAGLDMVQTYHSEELQPAPYSNEGFLGTVNGKSFLHQAGYEYSQEPSAMIVGTAAAAKPGEKVLDLCAAPGGKSTQLAAQMKGKGLLVTNEIFPKRAKILSENIERWGVSNAIVTNHAPAELVPHFSGFFDRIVVDAPCSGEGMFRKDPNAIKEWTEESPLYCQKRQQEILSSAIKMLKNKGQLIYSTCTFAPEENEEIISWLVENYPVTIEEIPLTQSVSSGRSEWGSVAGLEKTIRIWPHKDQGEGHFVAKLTFHGQNQMHKEKKTRKKSKVQMTKEQEKLWTEFSNDFHYEATGRLLVFNDHLWEVPELAPSLDGLKVVRTGLHLGDFKKNRFEPSYALALATKKIENIPCLPITQKEWQSYTAGETFQRDGNQGWVLLVLDKIPVGFGKQVKGTVKNFFPKGLRFH”: the “soluble on expression in E. coli” value was “soluble”.

As to “MSLHITTKRLLIREFEFKDWQAVYEYTSDSNVMKYIPEGVFTEEDAKAFVNKNKGDNAEKFPVILRDEDCLIGHIVFYKYFGEHTYEIGWVFNPNYQNKGYASEAAQAILEYGFKEMNLHRIIATCQPENIPSYRVMKKIGMRREGFFKKCIPKGNEWWDEYYYAILEEEWNEGHHHHHH”, the “soluble on expression in E. coli” value is recorded as “soluble”.

For the sequence “MSRNQNHEEYQDDTRPLSIEEQRARLRQLIIMGKERGYITYSEINDALPDDMSDADQIDNIVSMISGLGIQVTEHAPDAEDILLSDNAAVTDDDAVEEAEAALSSADSEFGRTTDPVRMYMREMGQVDLLTREDEIIIAKKIENALKNMVQAISACPGSIAEILELIEKIRKDEIRVDEVVEAIIDPNEVLLNELGLGHLETTAPEKPSNDNSDENEDDEESEEDADEISAANLAELKQKVIGHFAQIEKDYKKMIGRLEKHHSRHKDYLAYRDAIANKLLEVRFATRQIDSLSSSLRGKVENIRKLEREIRDICLDRVHMERDYFIQNFLPEITNLEWIEEEIAKGRVWSDALDRFRHAILEKQTELADMEKETRISIEELKEINKNMVSSEKETAAAKQEMIQANLRLVISIAKKYTNRGLQFLDLIQEGNIGLMKAVDKFEYRRGYKFSTYATWWIRQAITRSIADQARTIRIPVHMIETINKMNRISRQHLQETGEEPDSAKLAELMQMPEDKIRKIMKIAKEPISMETPIGDDDDSHLGDFIEDANNVAPADAAMYTSLHEVTKEILESLTPREAKVLRMRFGIDMNTDHTLEEVGRQFDVTRERIRQIEAKALRKLRHPTRSDRLRSFLDSEDSKL”, the “soluble on expression in E. coli” value is reported as “soluble”.

With “MGKYFGTDGVRGVANQELTPELAFKLGRYGGYVLAHNKGEKHPRVLVGRDTRVSGEMLESALIAGLISIGAEVMRLGIISTPGVAYLTRDMGAELGVMISASHNPVADNGIKFFGSDGFKLSDEQENEIEALLDQENPELPRPVGNDIVHYSDYFEGAQKYLSYLKSTVDVNFEGLKIALDGANGSTSSLAPFLFGDLEADTETIGCSPDGYNINEKCGSTHPEKLAEKVVETESDFGLAFDGDGDRIIAVDENGQIVDGDQIMFIIGQEMHKNQELNNDMIVSTVMSNLGFYKALEQEGIKSNKTKVGDRYVVEEMRRGNYNLGGEQSGHIVMMDYNTTGDGLLTGIQLASVIKMTGKSLSELAGQMKKYPQSLINVRVTDKYRVEENVDVKEVMTKVEVEMNGEGRILVRPSGTEPLVRVMVEAATDEDAERFAQQIADVVQDKMGLDK”, the “soluble on expression in E. coli” value was “not soluble”.

Consider “MGSDKIHHHHHHMDFRQFEYVKTIAEEKSISRAAERLYISQPSLSQYIIRLENSLGVKLFDRTSATITLTFAGEKYIETARNIINLNNQLTKELNDIANLSKGRVIIGVPSQAGRYILPLVIPKFYKEYPNIEIIVEENIVSELEKMLLEGKIDIAILTLPVQHEKITYESIMNERIFLIAPKKHPICSVDGRISFNFIRNEKFILLKKGQRIRLIVDDIFSRIGAKPNIILEITNLDAAYRMASSGMGFTIVPENVLYLLNTNGKENDFIIDSLEHTLVVAYRKGEYLTRASREFIANLKGVMKMDYNNKNHNSVSYKKIYID”, for which the “soluble on expression in E. coli” value is reported as “not soluble”.

As to “GQLAQDGVPEWFHGAISREDAENLLESQPLGSFLIRVSHSHVGYTLSYKAQSSCCHFMVKLLDDGTFMIPGEKVAHTSLDALVTFHQQKPIEPRRELLTQPCRQKD”, the “soluble on expression in E. coli” value is reported as “soluble”.

On to “MAEETIFSKIIRREIPSDIVYQDDLVTAFRDISPQAPTHILIIPNILIPTVNDVSAEHEQALGRMITVAAKIAEQEGIAEDGYRLIMNTNRHGGQEVYHIHMHLLGGRPLGPMLAHKGL”, for which the “soluble on expression in E. coli” value was “soluble”.

Consider “MAGPSDRTFSDQTEEIMQATYRALREHGYADLTIQRIADEYGKSTAAVHYYYDTKDDLLAAFLDYLLERFVDSIHDVETTDPEARLNLLLDELLVKPQENPDLSVALLEMRSQAPYKEAFSDRFRQNDEYVRYMLKAVINHGIDEGVFTDVDAEHVTRSLLTIIDGARTRAVMLDDTEELETARQTASEYADAMLQ”, for which the “soluble on expression in E. coli” value is on record as “soluble”.

Turning to “MGSDKIHHHHHHMIHSETFAEIATLKERNLIALKEAREAGRHAVGTYCLFSPTELILAAGAIPVSLCGTSQKPIPAAEKVLPRNLCPLIKSSYGFAVTDTCPYFHFADFLLAETTCDGKKKMYELLGELKPIHVMQLPQIQDEAALDYWLMEIGRLKTRLEREFGVRITDKALTEAIRLMNEERRSLQALQDVCKAIPSPISGLDLLTVLHNRGFSVDRRAAIELVDRFAAELRQMAAAGISPFTESTPRILLTGVPVGVGSEKLIRIIEESGASVVCLESCGAYKKVEQVREGGDPLRAIAERYLKVPCSCMSPNTGRLELVERLTREFRVDGVVDLTWLGCHTYAVESSVLKKHLQQRTGLPFLQIETDYSESDTGQLKVRVEAFLEIVHRSMKRTA”, the “soluble on expression in E. coli” value was “not soluble”.

Turning to “MTSLSSPSPIQHTTSSFLNNFMPTPSLINLQQGYRNPDLGSQDLARLDASRHESIQKVSRKLSTYEEEKNLIENELEEIERTGARLLSIVEQKDNFLASRIRRFMEKSKELVGIETLLRLQLNKHNERIKDGLIDISAARGEESYLQKRFKDTDFLRKISARREIDYDKELSEIFTDDQFHRWVMFKKATLQLLQTESSVSYYIRESNAKLDALHLAPRGTSA”, the “soluble on expression in E. coli” value is reported as “not soluble”.

As to “MGSDKIHHHHHHMALPVLICDDSAMARKQMARTLPKDWDVDITFATNGAEGLEAIRAGKGEVVFLDLNMPVMDGYEVLQTIQQQDLPALVIVVSGDIQIKAHERVKALGALDFIQKPVSAEAIAGILQEYGILVPGEGEGDEAEDNPLLKVDMRDACQEIANVAMGRAADLLAKLLDVFVVLPIPNVNVLEVSELTMALKATETSAKVTALCQGFIGAGVAGEALLLFHDSSFQDMAKLMKLDGPGDEATEVEVLIDTGNVLIGAFLNGIAEQLDMHFSQAHPVVLGRHCTVNDLIHDNAEKWHRTLAMEINYRIEDHNIECDLLLLFTEDSLPTLNYKLGYMLDTD”, the “soluble on expression in E. coli” value is “not soluble”.

On to “METRREERIGQLLQELKRSDKLHLKDAAALLGVSEMTIRRDLNNHSAPVVLLGGYIVLEPRSASHYLLSDQKSRLVEEKRRAAKLAATLVEPDQTLFFDCGTTTPWIIEAIDNEIPFTAVCYSLNTFLALKEKPHCRAFLCGGEFHASNAIFKPIDFQQTLNNFCPDIAFYSAAGVHVSKGATCFNLEELPVKHWAMSMAQKHVLVVDHSKFGKVRPARMGDLKRFDIVVSDCCPEDEYVKYAQTQRIKLMYLEHHHHHH”, for which the “soluble on expression in E. coli” value is reported as “soluble”.

For the sequence “MWIEELANGKFKYIERYTDPLTNKYKKVSVTLDKNSSQAQKKAGLILQEKIEDRLAIRNHSEMTYGELKKEYLKQWIPTVKDSTKRGYLVSDSHIATVLPDDTIINKLTKRDIRLIIDKLLKHNSYHVTHKCRKRLHAIFSYAIQMDYMTSNPTENVLVPKPKDDYKPEKVLYLTSNEVYDLCNRMIDNDEQTLADIVLFMFLTGVRYGELSCLTYDKIDFENKEILINATYDFNTREITTTKTKKSTRKISVSDNILDIVNRQKKTSSFVFPNSNGVPILNAYINKRLKIYGDYHTHLFRHSHISFLAEKGIPLNAIMDRVGHSDPKTTLSIYSHTTVNMKEIINKQTAPFVPLLKSE”, the “soluble on expression in E. coli” value was “not soluble”.

On to “MAHHHHHHMRSVWSGCRSIVSPPLWPLRLRHSVQVGAHGGHAFGMCSRSESVVSTFAMRVSLRWHGTTTPPSASPEGSSGAVHSVLSAAGHNDEEEASSSRSFRGTVRTVRLHNMPRTWLHEEVMQFLHQVAEHAGIDPPPEATQDNGTEGNANSKEYEEEDMTSAVPNVTSPFVARMHIPFGRRTGIVCGPPIIQLTSDALAGYLLNDLNFEPDDYRSRIYFTEVVNDKYHEATKMVNKDEAALLKMEQQEALESLELDRYLMAPDLLYDIAKMRQRRLVTRRSKLLLHTFADDDRPDEGEDGKDQSEVKDDDPTNENKRVRLRRHKKSKKTLRCVGEYKELGRGSVHSVPLALPYVQGRRGV”, for which the “soluble on expression in E. coli” value was “not soluble”.

For the sequence “MSLRPATDSPPLCAPPGAEVRAPSFVMPAGACDTHAHVISGDLERYPLVPDRSYTPPPAPEALYLEVLRAMGMQRGVLVQPSVYGTDNRYMLEVLQRHQDQLRGVAVVDEHVGDDELAHMHALGVRGVRINVLFRGGVNLDLMEHLAHRIADLGWHMQFLIDVRLLSEIEARMAKLPCAVVIDHFGHFPAHLGIKEAGFELLLRNVAEHGWWVKLSGAYRLSDQRPDYADTDALAHALLAVAPERMVWGSDWPHVALESTPDTSSLLDRLLSWAPSERQRQSILVDNPGALYDFKEGHHHHHH”, the “soluble on expression in E. coli” value is “soluble”.

Regarding “MGSRSSHAAVIPDGDSIRRETGFSQASLLRLHHRFRALDRNKKGYLSRMDLQQIGALAVNPLGDRIIESFFPDGSQRVDFPGFVRVLAHFRPVEDEDTETQDPKKPEPLNSRRNKLHYAFQLYDLDRDGKISRHEMLQVLRLMVGVQVTEEQLENIADRTVQEADEDGDGAVSFVEFTKSLEKMDVEQKMSIRILKHHHHHH”, the “soluble on expression in E. coli” value was “soluble”.
